{"source": "patent US12269859B2", "about": "“Synthetic immune receptors and methods of use thereof” (Angeles Therapeutics, Inc., priority 2016, dated 2025)", "system": "target antigen-expressing cell line", "assay": "Jurkat NFAT-GFP assay, coculture with target cell lines expressing the respective target antigen (summary Table 10A)", "type": "cell-based, human", "design": "key: The signs +/−, +, 2+ etc. after the name of the cell lines indicate the relative degree of positivity on the Jurkat-NFAT-GFP assay as measured by the % GFP positive cells; +: relative degree of positivity on the Jurkat-NFAT-GFP assay as measured by the % GFP positive cells; 2+: relative degree of positivity on the Jurkat-NFAT-GFP assay as measured by the % GFP positive cells", "settings": "relative % GFP positive cells", "method": "(B) Induction of NFAT promoter driven GFP expression. The control vector- and SIR-expressing Jurkat-NFAT-GFP cocultured for 4-24 hours with the target antigen-expressing cell line (described above) and their ability to bind to the target antigen is assayed by measuring induction of GFP expression using Flow Cytometry. Cellular supernatant is collected and assayed for the induction of cytokines (e.g., IL2).\nJurkat NFAT-GFP Assay For Synthetic Immune Receptors. The Jurkat-NFAT-GFP cells are engineered in such a way that the IL-2 promoter, which carries NFAT binding sites, is cloned upstream of the GFP gene. These cells have been used to study signaling via TCR and CAR. The different SIRs were stably expressed in Jurkat NFAT-GFP cells by lentiviral mediated gene transfer, followed by selection with puromycin. The SIR-expressing Jurkat-NFAT-GFP cells were cocultured with the target cells at E:T ratio of approximately 1:2 for approximately 4 hours to 18 hours. When the interaction between SIRs and their target antigen results in activation of the NFAT pathway, GFP expression is induced.\nInduction of GFP expression by coculturing of Jurkat-NFAT-GFP cells expressing different SIR constructs and the different target cells was studied essentially as described previously (Wu, Roybal, Puchner, Onuffer, & Lim, 2015). GFP expression was monitored by FACS analysis. A few representative examples of this assay are shown in the FIG. 13A-B. In panel A, control Jurkat-NFAT-GFP cells or those expressing SIRs targeting CD19 (clone ID 051716-I08), MPL (Clone ID: 040716-A07) and BCMA (Clone ID: 011116-A07) were incubated with RAJI (top), HEL (middle) or U266 (bottom) cells, respectively. […] In panel B, Jurkat cells expressing SIR targeting CDH6 (Clone ID: 051716-J05), CD276 (Clone ID: 050516-Q06) and Her2/neu (Clone ID: 050516-I03) were incubated with SKOV3 (top) and […] (middle and bottom) cells, respectively. […] The Jurkat-NFAT-GFP cells were engineered to express different SIRs targeting other antigens and the experiment repeated upon coculture with the target cells expressing their respective target antigen. The Jurkat-NFAT-GFP (parental) cells were used as control. The names of different SIRs, their SEQ ID NOs, component antigen binding domains and TCR chains can be determined by reference to Tables 7A-7H. A SIR is considered positive in the assay in case the SIR expressing Jurkat-NFAT-GFP cells show greater % GFP positive cells when cultured with the target cell line as compared to parental Jurkat-NFAT-GFP cells. […] The signs +/−, +, 2+ etc. after the name of the cell lines indicate the relative degree of positivity on the Jurkat-NFAT-GFP assay as measured by the % GFP positive cells after culture of the SIR expressing Jurkat-NFAT-GFP cells with that cell line. […] In addition, great diversity of response against the same target cell line is observed with Jurkat cells expressing SIRs containing different antigen binding domains targeting the same antigen (e.g., SIRs having antigen binding domains derived form different CD19 antibodies) even when the SIRs share the same TCR chains and linkers. Finally, Jurkat cells expressing SIRs targeting different antigens (e.g. CD19 vs CD20) show a diversitiy of response when exposed to the same target cell line. Thus, a diverse immune response can be generated against a single target cell by combining SIRs with different TCR chains, linkers, antigen binding domains and target specificity. Table 10A also summarizes the results of GLuc based T cell cytotoxicity assay observed with different SIRs when exposed to their target cell lines. […]"}
{"molecule": "012617-M05 (protein) MALPVTALLLPLALLLHAARPLEGKPIPNPLLGLDSTGSGEDLKNVFPPEVAVFEPSKAEIAHTQKATLVCLATGFYPDHVELSWWVNGKEVHSGVCTDPQPLKEQPALNDSRYCLSSRLRVSATFWQNPRNHFRCQVQFYGLSENDEWTQDRAKPVTQIVSAEAWGRADCGITSASYHQGVLSATILYEILLGKATLYAVLVSALVLMAMVKRKDSRGRAKRSGSGATNFSLLKQAGDVEENPGPTSMALPVTALLLPLALLLHAARPQSVLTQPASVSGSPGQSITISCTGTSSDVGGYNYVSWYQQHPGKAPKLMIYDVNNRPSEVSNRFSGSKSGNTASLTISGLQAEDEADYYCSSYTTGSRAVFGGGTKLTVLGGGGGSGGGGSGGGGSEVQLVQSGAEVKKPGESLTISCKASGYSFPNYWITWVRQMSGGGLEWMGRIDPGDSYTTYNPSFQGHVTISIDKSTNTAYLHWNSLKASDTAMYYCARYYVSLVDIWGQGTLVTVSSTREQKLISEEDGSGIQNPDPAVYQLRDSKSSDKSVCLFTDFDSQTNVSQSKDSDVYITDKCVLDMRSMDFKSNSAVAWSNKSDFACANAFNNSIIPEDTFFPSSDVPCDVKLVEKSFETDTNLNFQNLSVIGFRILLLKVAGFNLLMTLRLWSSRAKRSGSGVKQTLNFDLLKLAGDVESNPGPSRGHMTEYKPTVRLATRDDVPRAVRTLAAAFADYPATRHTVDPDRHIERVTELQELFLTRVGLDIGKVWVADDGAAVAVWTTPESVEAGAVFAEIGPRMAELSGSRLAAQQQMEGLLAPHRPKEPAWFLATVGVSPDHQGKGLGSAVVLPGVEAAERAGVPAFLETSAPRNLPFYERLGFTVTADVEVPEGPRTWCMTRKPGA", "values": [{"measurement": "NFAT-GFP ASSAY Positive Cell lines: HepG2", "setting": "SIR-expressing Jurkat-NFAT-GFP cells cocultured with HepG2", "result": "HepG2 (2+)"}]}
{"molecule": "012417-H04 (protein) MALPVTALLLPLALLLHAARPLEGKPIPNPLLGLDSTGSGEDLKNVFPPEVAVFEPSKAEIAHTQKATLVCLATGFYPDHVELSWWVNGKEVHSGVCTDPQPLKEQPALNDSRYCLSSRLRVSATFWQNPRNHFRCQVQFYGLSENDEWTQDRAKPVTQIVSAEAWGRADCGITSASYHQGVLSATILYEILLGKATLYAVLVSALVLMAMVKRKDSRGRAKRSGSGATNFSLLKQAGDVEENPGPTSMALPVTALLLPLALLLHAARPDIVMTQSPATLSLSPGERATLSCRSSKSLQNVNGNTYLYWFQQKPGQSPQLLIYRMSNLNSGVPDRFSGSGSGTEFTLTISSLEPEDFAVYYCMQHLEYPITFGAGTKLEIKGGGGSGGGGSGGGGSEVQLVESGGGLVKPGGSLKLSCAASGYTFTSYVMHWVRQAPGKGLEWIGYINPYNDGTKYNEKFQGRVTISSDKSISTAYMELSSLRSEDTAMYYCARGTYYYGTRVFDYWGQGTLVTVSSTREQKLISEEDGSGIQNPDPAVYQLRDSKSSDKSVCLFTDFDSQTNVSQSKDSDVYITDKCVLDMRSMDFKSNSAVAWSNKSDFACANAFNNSIIPEDTFFPSSDVPCDVKLVEKSFETDTNLNFQNLSVIGFRILLLKVAGFNLLMTLRLWSSRAKRSGSGVKQTLNFDLLKLAGDVESNPGPSRGHMTEYKPTVRLATRDDVPRAVRTLAAAFADYPATRHTVDPDRHIERVTELQELFLTRVGLDIGKVWVADDGAAVAVWTTPESVEAGAVFAEIGPRMAELSGSRLAAQQQMEGLLAPHRPKEPAWFLATVGVSPDHQGKGLGSAVVLPGVEAAERAGVPAFLETSAPRNLPFYERLGFTVTADVEVPEGPRTWCMTRKPGA", "values": [{"measurement": "NFAT-GFP ASSAY Positive Cell lines: NALM6", "setting": "SIR-expressing Jurkat-NFAT-GFP cells cocultured with NALM6", "result": "(+)"}, {"measurement": "NFAT-GFP ASSAY Positive Cell lines: RAJI", "setting": "SIR-expressing Jurkat-NFAT-GFP cells cocultured with RAJI", "result": "RAJI (2+), NALM6"}]}
